Source: EP4786489A1, “IL-22 MUTANT, PREPARATION METHOD THEREFOR, AND USE THEREOF” (Nanjing Novoacine Biotechnology Co., Ltd., priority 2023, dated 2025)

Test system: STAT3
Assay: STAT3 phosphorylation in HaCaT cells by FACS (tissue activation preference)
Assay type: cell-based, Human
Details: STAT3 activation in HT29 vs HaCaT cells
Protocol: Human immortalized keratinocyte HaCaT cells were recovered and cultured in MEM/EBSS medium (Cytiva, SH30024.01) supplemented with 15% FBS and 1% P/S (Cytiva, SV30010). When cell confluence reached 70%-80%, cells were digested with 0.25% Trypsin-EDTA (Gibco, 25200-056), terminated with complete medium, and resuspended to […]. After mixed thoroughly, a total of 120 µL per well cells was seeded into a 96-well plate (Corning, 3599) at a density of 1.5 × 10^5 cells per well and incubated overnight at 37°C with 5% CO2.
wt IL-22 was prepared at an initial working concentration of 1000 nM, and the remaining samples were prepared at 10000 nM as the starting concentration. […] After staining at room temperature in the dark for 1 hour, cells were washed twice with 1× PBS and analyzed by flow cytometry to determine the mean fluorescence intensity (MFI).
Tissue activation preference of different test candidates was evaluated by comparing their ability to activate STAT3 in intestinal-derived HT29 cells and skin-derived HaCaT cells. […] The activity of PEGylated IL-22 mutants in activating STAT3 phosphorylation in HaCaT cells at different concentrations as determined by FACS is shown in Figure 8. […] Tissue preference of PEG-IL22 mutants for STAT3 phosphorylation in human intestinal and human skin cell lines determined by FACS

B1: 60K-PEG-IL22-P120C: IL-22 cysteine mutant, conjugation site 87, PEG-maleimide 60kD (conjugate)
chain: APISSHCRLDKSNFQQPYITNRTFMLAKEASLADNNTDVRLIGEKLFHGVSMSERCYLMKQVLNFTLEEVLFPQSDRFQPYMQEVVCFLARLSNRLSTCHIEGDDLHIQRNVQKLKDTVKKLGESGEIKAIGELDLLFMSLRNACI
tissue preference compared with IL-22-Fc: superior tissue preference
